Test results taken from publication PMC2483945, “Structure of the Head of the Bartonella Adhesin BadA” (PLoS Pathogens, 2008).

Experiments:
[1] = target: BadA head fragment after trypsin treatment (protease-resistant fragment of approx. 14 kDa) (Bartonella henselae); assay: not stated; fragments of approx. 14 kDa after trypsin or chymotrypsin treatment (10 min, room temperature, 20 mM MOPS/KOH pH 7.2, 150 mM NaCl); how the trimers were shown is not told
[2] = target: BadA head fragment after chymotrypsin treatment (protease-resistant fragment of approx. 14 kDa) (Bartonella henselae); assay: as above
[3] = target: the molecule itself; assay: SEC-MALS; calibrated analytical S200 column (GE Healthcare) coupled to a MiniDAWN Tristar static light scattering detector; data not shown

Molecule: BadA head fragment after trypsin treatment (protease-resistant fragment of approx. 14 kDa) (domain or fragment)
- stoichiometry N [1]: 3

Molecule: BadA head fragment after chymotrypsin treatment (protease-resistant fragment of approx. 14 kDa) (domain or fragment)
- stoichiometry N [2]: 3

B1: BadA head fragment (Trp-ring domain, GIN domain, neck and first stalk segment; residues 375 to 536) (domain or fragment)
chain: KALRGMISEKGGWNLTVNNDNNTVVSSGGALDLSSGSKNLKIVKDGKKNNVTFDVARDLTLKSIKLDGVTLNETGLFIANGPQITASGINAGSQKITGVAEGTDANDAVNFGQLKKIETEVKEQVAASGFVKQDSDTKYLTIGKDTDGDTINIANNKSDKRT
notes: Residues 385-498 are resolved in the crystal; also called BadA construct; BadA fragment; source: recombinantly expressed, purified as described [11]
- stoichiometry N [3]: 3
